Experimental findings from publication PMC9103930 are described below.

The target of assay [1] is Deinococcus grandis Dps, wild type (Deinococcus grandis). Put plainly: SAXS; solution SAXS (batch and SEC-SAXS), 50 mM MOPS pH 7.0 with 50-480 mM NaCl (WT) or 50 and 230 mM NaCl (∆N); ab initio models (GASBOR, DAMMIN) with P23 symmetry set.
Assay [2] addresses Deinococcus grandis Dps tailless variant ∆N (lacking the first 46 residues) (Deinococcus grandis). Put plainly: SEC + other: dynamic light scattering; Superdex 200 10/300 GL calibrated with protein standards, and DLS at 25 °C; 200 mM MOPS pH 7.0, 200 mM NaCl; WT also in 50 mM MOPS pH 7.0 with 50-480 mM NaCl; apparent molecular mass and hydrodynamic diameter of the oligomer.
For assay [3] the target is unchanged. Put plainly: SAXS; solution SAXS (batch and SEC-SAXS), 50 mM MOPS pH 7.0 with 50-480 mM NaCl (WT) or 50 and 230 mM NaCl (∆N); ab initio models (GASBOR, DAMMIN) with P23 symmetry set.

As usually defined, the stoichiometry N is a count of units in the complex or per binding partner. As for “Deinococcus grandis Dps, wild type (from UniProt A0A100HLL5 1-214) (natural protein)”, the stoichiometry N in assay [1] came out at 12.
In the case of “Deinococcus grandis Dps tailless variant ∆N (lacking the first 46 residues) (from UniProt A0A100HLL5 47-205) (domain or fragment)”, the stoichiometry N in assay [2] and in assay [3] was 12 in each case.
